Data: patent publication US20190016816A1 (APTEVO RESEARCH AND DEVELOPMENT, published 2019)
One block for each binder: values may come before it.

Tests used:
[1] = molecular target: T1, human CD137 on cells (human, UniProt Q07011 24-255); assay: flow cytometry, normalized percentage of CD8 T cells (gated from CD3-stimulated human PBMC) bound by the biotinylated antibody, pooled data of 2 exp, n=6 donors
T1 construct: also called 4-1BB; TNFRSF9 (CHO-K1/human CD137 cells)
Method: (§1) Following 48 h of incubation with or without CD3, human and cynomolgus PBMC were harvested, pooled, recounted and diluted in FACS buffer (PBS+0.5% BSA, 0.05% NaN₃) to a concentration of 5×10⁶ cells/mL. 50 μL (0.25×10⁶ cells) of cell solution was added to a 96-well FACS staining plate (Falcon #351190). Following 10 min of Fc-blocking in RT using Beriglobin (hIgG, 200 μg/mL), cells were washed in FACS buffer and then incubated for 1 h in 4° C. with 100 μL of the biotinylated ALG.APV-210 or negative control. The antibodies were added in a serial dilution starting either at 5 μg/mL titrating down in a 12 step ⅓ dilution down to 0.0003 μg/mL (exp 1) or 1 μg/mL titrating down in a 12 step ½ dilution down to 0.0005 μg/mL (exp 2). […] Cells were analysed for ALG.APV-210 binding using flow cytometry by gating on viable, single cells expressing CD3 and CD8. MFI values (FMO subtracted) from 2 independent experiments as well as normalized pooled data from 2 experiments and EC₅₀-values were determined and plotted using GraphPad Prism 7, non-linear regression log (agonist) vs. normalized response—variable slope, n=6 donors/group.

[2] = molecular target: T2, cynomolgus CD137 on cells (cynomolgus macaque, UniProt A9YYE7 24-254); assay: flow cytometry, MFI of the CD137 positive cells; cynomolgus CD8 T cells, MFI of CD137 positive cells
T2 construct: whole, on cells; also called CHO-K1/cynomolgus CD137 cell line; cynomolgus monkey CD137 on CD3-stimulated primary CD8 T cells
T2 sequence (A9YYE7 entry or part of it): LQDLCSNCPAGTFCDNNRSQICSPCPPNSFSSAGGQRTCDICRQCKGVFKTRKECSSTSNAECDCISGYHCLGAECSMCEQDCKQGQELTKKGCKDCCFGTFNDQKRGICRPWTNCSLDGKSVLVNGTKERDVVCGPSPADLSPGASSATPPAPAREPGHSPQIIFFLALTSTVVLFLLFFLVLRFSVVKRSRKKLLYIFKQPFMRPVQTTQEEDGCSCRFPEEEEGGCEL
Method: as §1, with “control.” for “control. The antibodies were added in a serial dilution starting either at 5 μg/mL titrating down in a 12 step ⅓ dilution down to 0.0003 μg/mL (exp 1) or 1 μg/mL titrating down in a 12 step ½ dilution down to 0.0005 μg/mL (exp 2).”
ALG.APV-210 binding was also assessed by looking at the percentage of CD8 T cells bound by ALG.APV-210. […] The binding EC₅₀ values were also calculated on the MFI of the CD137 positive cells, and the results was an EC₅₀ of 0.17 nM for binding to human CD137 and 0.20 nM for cynomolgus monkey CD137.

[3] = molecular target: T3, human 5T4 on cells (human, UniProt Q13641 32-420); assay: flow cytometry, CT26-hu5T4^high cells, streptavidin-PE, normalized MFI of 2 pooled experiments
T3 construct: also called TPBG; hu5T4
T3 sequence: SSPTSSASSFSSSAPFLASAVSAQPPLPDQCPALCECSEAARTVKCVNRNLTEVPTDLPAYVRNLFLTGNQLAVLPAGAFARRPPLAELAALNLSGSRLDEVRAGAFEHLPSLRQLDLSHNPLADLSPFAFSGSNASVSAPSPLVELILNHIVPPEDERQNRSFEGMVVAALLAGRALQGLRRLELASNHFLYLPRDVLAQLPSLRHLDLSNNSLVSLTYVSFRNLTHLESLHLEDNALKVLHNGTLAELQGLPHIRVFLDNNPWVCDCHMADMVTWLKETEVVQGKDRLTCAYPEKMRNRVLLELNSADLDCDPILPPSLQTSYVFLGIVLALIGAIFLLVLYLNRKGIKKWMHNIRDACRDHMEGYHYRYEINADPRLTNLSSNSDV
Method: Prior to the FACS staining, all cell lines were characterized for their 5T4 expression levels using a receptor density kit (Quantum Simply Cellular, anti-human IgG, Bangs Laboratories, Inc). Adherent cell lines were cultured according to their supplier's instructions and were harvested from their cell culture flasks using Trypsin/EDTA, counted in R10 medium in a Burker chamber, and diluted in FACS buffer (PBS+0.5% BSA, 0.05% NaN₃) to a concentration of 4×10⁶ cells/mL. 50 μL (0.20×10⁶) of cell solution was added to a 96-well FACS staining plate (Falcon #351190). Cells were incubated for 20 min in 4° C. with 50 μL of the biotinylated ALG.APV-210 (2× final concentration). The antibodies were added in a serial dilution starting at 20 μg/mL titrating down in a 12 step ½ dilution down to 0.010 μg/mL. Following 2× washing with FACS buffer, cells were incubated for 30 min in 4° C. with 100 μL of a secondary antibody (streptavidin-PE, BD #554061, diluted 1/500). […] Cells were analysed for ALG.APV-210 binding using flow cytometry (FACSVerse) by gating on single cells. MFI values (secondary antibody only subtracted) from 1 out of 2 independent experiments, as well as normalized data and EC₅₀-values of pooled data from 2 experiments were determined and plotted using GraphPad Prism 7, non-linear regression log (agonist) vs. normalized response—variable slope.

[4] = molecular target: T3, human 5T4 on cells; assay: flow cytometry, SKOV-3 cells (endogenous human 5T4), labelled anti-human IgG secondary, MFI (mean)
Method: Binding studies were performed by standard flow cytometry-based staining procedures two cell lines expressing 5T4:CHO-K1 cells (obtained from Alligator) transduced with human or cynomolgus macaque 5T4 and SKOV-3 human ovarian adenocarcinoma cells which express (human) 5T4. All labeling and washes were performed in U-bottom 96-well plates in saline buffer with 0.1% BSA and 2 mM EDTA. Cell were plated at approximately 100,000 cells per well and incubated with a range of 100 nM to 0.05 nM concentrations of test molecules in […], for 30 minutes on ice. Cells were washed three times then incubated for another 30 min on ice with fluorescently-labeled secondary polyclonal antibody, F(ab′)² goat anti-human IgG (Jackson ImmunoResearch Laboratories). The cells were then washed twice and the samples acquired in a BD LSRII or a Symphony A3 flow cytometer. The sample files were analyzed using FlowJo software; the mean fluorescence intensity (MFI-mean) or median fluorescence intensity (MFI-median) of the live population of cells in each well was calculated after gating on live cells (forward vs side scatter). Nonlinear regression analysis to determine EC₅₀ values was performed in GraphPad Prism 6® graphing and statistics software.

T1 sequence (Q07011 24-255 limits assumed): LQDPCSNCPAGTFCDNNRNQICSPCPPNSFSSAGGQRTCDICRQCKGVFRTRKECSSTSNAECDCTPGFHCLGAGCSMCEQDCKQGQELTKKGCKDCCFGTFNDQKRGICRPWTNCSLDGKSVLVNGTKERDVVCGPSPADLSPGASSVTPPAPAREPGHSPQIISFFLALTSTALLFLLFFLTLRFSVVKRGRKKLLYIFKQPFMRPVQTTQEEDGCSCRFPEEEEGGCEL

B1: biotinylated ALG.APV-210 (bispecific antibody)
chain: EVQLLESGGGLVQPGGSLRLSCAASGFTFSHGSMYWVRQAPGKGLEWVSSISSGSGSTYYADSVKGRFTISHDNSKNTLYLQMNSLRAEDTAVYYCARSSYYGSYYSIDYWGQGTLVTVSSGGGGSGGGGSGGGGSGGGGSDIQMTQSPSSLSASVGDRVTITCRASQSISSYLNWYQQKPGKAPKLLIYAASSLQSGVPSRFSGSGSGTDFTLTISSLQPEDFATYYCQQYYDNLPTFGQGTKLEIKEPKSSDKTHTCPPCPAPEAAGAPSVFLFPPKPKDTLMISRTPEVTCVVVDVSHEDPEVKFNWYVDGVEVHNAKTKPREEQYNSTYRVVSVLTVLHQDWLNGKEYKCAVSNKALPAPIEKTISKAKGQPREPQVYTLPPSRDELTKNQVSLTCLVKGFYPSDIAVEWESNGQPENNYKTTPPVLDSDGSFFLYSKLTVDKSRWQQGNVFSCSVMHEALHNHYTQKSLSLSPGSGGGGSGGGGSGGGGSPSEVQLLESGGGLVQPGGSLRLSCAASGFTFSSYAMSWVRQAPGKCLEWVSAISGSGGSTYYADSVKGRFTISRDNSKNTLYLQMNSLRAEDTAVYYCARYYGGYYSAWMDYWGQGTLVTVSSGGGGSGGGGSGGGGSGGGGSDIQMTQSPSSLSASVGDRVTITCRASQSISSFLNWYQQKPGKAPKLLIYAASSLQSGVPSRFSGSGSGTDFTLTISSLQPEDSATYYCQQTYGYLHTFGCGTKLEIKR
notes: also called ALG.APV-210 (biotinylated for FACS detection)
EC50 [1]: 0.027 nM | EC50 [2]: 0.2 nM | EC50 [3]: 20 nM

EC50 [4]: 9.2 nM | Maximum MFI [4]: 1800
B2: ALG.APV-187 (bispecific antibody)
chain: EVQLLESGGGLVQPGGSLRLSCAASGFTFSHGSMYWVRQAPGKGLEWVSSISSGSGSTYYADSVKGRFTISHDNSKNTLYLQMNSLRAEDTAVYYCARSSYYGSYYSIDYWGQGTLVTVSSGGGGSGGGGSGGGGSGGGGSDIQMTQSPSSLSASVGDRVTITCRASQSISSYLNWYQQKPGKAPKLLIYAASSLQSGVPSRFSGSGSGTDFTLTISSLQPEDFATYYCQQYYDNLPTFGQGTKLEIKSSEPKSSDKTHTCPPCPAPEAAGAPSVFLFPPKPKDTLMISRTPEVTCVVVDVSHEDPEVKFNWYVDGVEVHNAKTKPREEQYNSTYRVVSVLTVLHQDWLNGKEYKCAVSNKALPAPIEKTISKAKGQPREPQVYTLPPSRDELTKNQVSLTCLVKGFYPSDIAVEWESNGQPENNYKTTPPVLDSDGSFFLYSKLTVDKSRWQQGNVFSCSVMHEALHNHYTQKSLSLSPGSGGGGSGGGGSGGGGSPSEVQLLESGGGLVQPGGSLRLSCAASGFTFSSYAMSWVRQAPGKCLEWVSAISGSGGSTYYADSVKGRFTISRDNSKNTLYLQMNSLRAEDTAVYYCARYYGGYYSAWMDYWGQGTLVTVSSGGGGSGGGGSGGGGSGGGGSDIQMTQSPSSLSASVGDRVTITCRASQSISSFLNWYQQKPGKAPKLLIYAASSLQSGVPSRFSGSGSGTDFTLTISSLQPEDSATYYCQQTYGYLHTFGCGTKLEIKR
notes: Optimized ADAPTIR scFv-Fc-scFv homodimer with stabilizing disulfide in the 1210 scFv
